Blank lines part the entries; values can stand above or below the molecule they belong to.
Assays:
[1] = biological target: recombinant extracellular alpha-3 domain of MICA (allele 001), His-tagged, Baculovirus/Sf9 expressed (human) (UniProt Q29983); assay: Bio-Layer Interferometry (Octet RED96), antibody captured by anti-mouse IgG, antigen in solution, pH 7.4, 1:1 model
[2] = biological target: soluble MICB (sMICB) shed from prostate cancer DU-145 cells (human) (UniProt Q29980); assay: subtractive immunoprecipitation from DU-145 conditioned medium with antibody on Protein G beads, remaining sMICB by MICB ELISA, against isotype controls
[3] = biological target: T1, recombinant extracellular alpha-3 domain of MICA (allele 001), His-tagged, Baculovirus/Sf9 expressed (human, UniProt Q29983 205-297); assay: Bio-Layer Interferometry (Octet RED96), antibody captured by anti-mouse IgG, antigen in solution, pH 7.4, 1:1 model
T1 construct: also called MICA alpha-3 recombinant antigen; alpha-3 domain MICA immunogen
T1 sequence: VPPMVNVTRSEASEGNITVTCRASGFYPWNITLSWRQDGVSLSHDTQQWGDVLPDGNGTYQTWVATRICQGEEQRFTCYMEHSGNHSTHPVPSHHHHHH
Description: Biomolecular interactions between MICA alpha-3 recombinant antigen and test antibody were directly measured by Bio-Layer Interferometry (BLI) using a Pall ForteBio Octet RED96 machine (Pall ForteBio, CA, USA). Real-time kinetic analyses were performed on the test MICA monoclonal antibody 5C9, as well as two control antibodies, one of which could bind the alpha-3 MICA subdomain antigen (positive control) and one of which could not (negative control), as previously determined by ELISA. The Octet RED96 apparatus operates under the principle of Bio-Layer Interferometry, a label-free technique that measures molecular interactions and complex formation. A key component of the technique is the optical biosensor whose tip is immersed in the fluids of the test well and then used to assay interference patterns between waves of light. Here, the ligand (monoclonal antibody) is localized to the surface of the biosensor through capture by previously bound anti-mouse IgG, while the analyte biomolecule (antigen) is kept in solution. Binding responses between ligand and analyte were measured and reported in real-time. Both association and dissociation kinetics were monitored and KD values were calculated. This model assumed a 1:1 interaction of ligand to analyte.

soluble MICB (sMICB) shed from prostate cancer DU-145 cells (human), sequence (Q29980 23-309): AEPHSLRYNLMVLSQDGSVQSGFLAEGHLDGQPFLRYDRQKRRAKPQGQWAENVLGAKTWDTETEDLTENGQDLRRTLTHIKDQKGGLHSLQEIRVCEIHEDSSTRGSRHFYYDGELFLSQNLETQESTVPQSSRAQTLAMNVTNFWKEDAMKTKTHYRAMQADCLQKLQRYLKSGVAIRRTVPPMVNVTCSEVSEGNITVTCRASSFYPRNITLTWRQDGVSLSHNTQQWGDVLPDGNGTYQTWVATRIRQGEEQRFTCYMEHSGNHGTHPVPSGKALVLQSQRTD

Kd [1]: 6 nM
reduction of the amount of sMICB in the sample [2]: 83%
Molecule: BAMO3, MIC alpha-3 specific murine IgG2a monoclonal antibody (MBL International)

Kd [1]: 9600 nM
Molecule: negative control antibody of the Bio-Layer Interferometry analysis

Kd [3]: ~3.3 nM
B1: monoclonal antibody 5C9 (antibody, V domains shown)
VH: QVQLQQSGAELVRPGTSVKVSCKASGYAFTNYLIEWVKQRPGQGLEWIGLIYPGSGGTNYNEKFKGKATLTADKSSSTAYMQLSSLTSDDSAVYFCARIYYGNRDYGMDYWGQGTSVTVSS
VL: MTQTPLSLPVSLGDQASISCRSSQSIVHSNGNTYLEWYLQKPGQSPKLLIYKVSNRFSGVPDRFSGSGSGTDFTLKISRVEAEDLGVYYCFQGSHVPFTFGSGTKLEIK
notes: Mouse hybridoma antibody; Used as hybridoma supernatant in the screening and immunoprecipitation assays; also called mAb 5C9; antibody from hybridoma clone 5C9

— patent US20190248901A1 (NOVELOGICS BIOTECHNOLOGY, published 2019)
